{
  "source": "patent US20080113907A1",
  "about": "“Uses Of Galectin-2” (Charite-Universitat-Smedizin Berlin, priority 2004, published 2008)",
  "molecules": {"B1": {"name": "galectin-2: β-galactoside binding lectin, non-covalent dimer with subunits of about 14 kDa; recombinant human or rat (SEQ ID NO:1, 2) (protein)", "chain": "MAGELEVKNMDMKPGSTLKITGSIADGTDGFVINLGQGTDKLNLHFNPRFSESTIVCNSLDGSNWGQEQREDHLCFSPGSEVKFTVTFESDKFKVKLPDGHELTFPNRLGHSHLSYLSVRGGFNMSSFKLKE"}},
  "key": {"PBT [1]": {"tested_on": "PBT", "assay": "Extent of apoptosis and necrosis (annexin-V, PI, DAPI staining)", "type": "cell-based, human", "description": "Apoptosis was determined by monitoring fragmentation of nuclear DNA and access of annexin V to c ell surface phosphatidylserine (PS). To detect fragmentation of nuclear DNA, T cells were cultured in the presence and absence of the respective galectins, with or without blocking antibodies or further activation for 48 h. Thereafter, cells were fixed in 0.2 ml of 37% formaldehyde for 10 min at room temperature. The cells were then treated with 1 ml PBS containing 0.2% Nonidet P-40 (Sigma-Aldrich) for 2 min at room temperature and then rinsed once in PBS. The apoptotic cells were detected by staining of nuclear DNA with 4,6-diamino-2-phenylindole (DAPI) (Calbiochem). DAPI was added at a concentration of 0.2 ng/ml of PBS and cells were incubated at room temperature for 20 min in this solution. Cells were rinsed twice in PBS and the coverslips were maintained cell side down on a microscope slide and analyzed using a Zeiss Axiovert 135M microscope (Carl Zeiss, Oberkochen, Germany). To detect early phases of apoptosis, access to PS was measured. Cells were cultured as described, harvested at the respective time points, stained with FITC-labeled annexin-V and PI and analyzed by flow cytometry using the CellQuest software program (BD Pharmingen). A minimum of 15,000 cells was monitored in each case."}, "[2]": {"assay": "Toxicity study with supratherapeutic dose in healthy mice", "type": "in vivo, Balb/c mice", "description": "In addition, Balb/c mice (not treated with DSS) were treated with 100 mg/kg body weight-Galectin-2, a dose that was up to 50-fold higher than doses of Galectin-2 that caused optimal anti-inflammatory effects in DSS treated mice (optimal therapeutic doses ranged from 1.5-3 mg/kg body weight per day). In these toxicity studies Balb/c mice (n=5), weighing on average 20 g, were treated with 100 mg/kg body weight Galectin-2 once daily i.p. for 5 days. The mice gained about 7±1.7% weight during the 5 day treatment period. […] The mice were sacrificed following the 5 day treatment period and organs were collected for pathological assessment by an experienced pathologist."}, "PBT [3]": {"tested_on": "PBT", "assay": "Apoptosis regulator proteins by immunoblotting and flow cytometry", "type": "cell-based, human", "description": "For immunoblotting cells were washed in PBS, and lysed in cell lysis buffer (1% Triton-X, 0.5% NP-40, 0.1% SDS, 0.5% sodium deoxycholate, 5 mM EDTA, 50 mM and 50 mM protease- and phosphatase-inhibitor cocktail 2, 1 mM PMSF, 100 μg/ml trypsin-chymotrypsin inhibitor, 100 μg/ml chymostatin in PBS). The concentration of proteins in each lysate was measured using the Bio-Rad protein assay (Bio-Rad Laboratories, Hercules, Calif.). Equivalent amounts of protein (10 μg) were fractionated on a 10-20% Tris-glycine gel and electrotransferred to a nitrocellulose membrane (Novex, San Diego, Calif.). Membranes were blocked with 5% milk in 0.1% Tween 20-PBS (Fisher Scientific, Hanover Park, Ill.), followed by incubation for 60 m in at room temperature with the indicated primary antibody. The membranes were washed six times with 0.1% Tween 20-PBS and then incubated for 1 h with the appropriate horseradish peroxidase-conjugated secondary antibody (Santa Cruz Biotechnology), washed, and incubated with the chemiluminescent substrate (Perkin-Elmer, Carlsbad, Calif.) for 5 minutes. The membranes were then exposed to film (Amersham, Arlington Heights, Ill.).\n(§1) For surface staining, cells were washed twice in ice-cold PBS and 1×10^6 cells were resuspended in flow buffer (HBSS containing 1% BSA and 0.1% sodium azide). Cells were incubated with the respective mAb at predetermined saturating concentrations or with isotype-matched nonspecific mouse mAb (DAKO) for 30 min at 4° C., washed twice with flow buffer, and incubated with FITC-conjugated goat anti-mouse IgG for 30 min at 4° C. The cells were again washed twice with flow buffer, fixed in 1% paraformaldehyde and analyzed by a single laser flow cytometer (FacsCalibur, […]), using Cell Quest software (BD Pharmingen). Cells stained with a negative control Ab were gated to contain <2% positive cells. To perform analysis of intracellular proteins, cells were washed twice with PBS, adjusted to 1×10^6 cells per sample, and fixed in 90% methanol at −20° C. After fixation, cells were washed twice with PBS and incubated with a monoclonal mouse anti-bax, Bcl-2, Rb, Cyclin A, p21, p27, or p53 antibody for 45 minutes at 4° C., followed by an incubation with a goat anti-mouse FITC-conjugated mAb (Biosource) for 45 minutes at 4° C. Thereafter cells were washed and analyzed by flow cytometry as described above. The background level of immunofluorescence was determined by incubating cells with FITC-conjugated mouse IgG (isotype control)."}, "T cells (PBT, LPT) [4]": {"tested_on": "T cells (PBT, LPT)", "assay": "Integrin accessibility on T cell surface (flow cytometry)", "type": "cell-based, human", "description": "as §1"}, "T cells (PBT, LPT) [5]": {"tested_on": "T cells (PBT, LPT)", "assay": "Adhesion assay to collagen type I and fibronectin", "type": "cell-based, human", "description": "96 well flat-bottom plates were precoated overnight at 4° C. with 12 μg/well fibronectin (Chemicon) in DPBS, 40 μg/well collagen type I (Sigma-Aldrich) in 0.1 M acetic acid, or 3% BSA (Sigma-Aldrich) in DPBS as a control and then washed three times with DPBS. Freshly isolated T cells were fluorescently-labelled with 5 μM calcein-AM (Molecular Probes, Eugene, Oreg.) for 30 min at 37° C. in 5% CO2 at 5×10^6 cells/ml in RPMI. The cells were then washed three times with RPMI containing 5% FCS. Calcein-labelled T cells were resuspended in RPMI and 5×10^5 T cells/well were added to 96-well plates containing purified ECM components or BSA for the indicated times. Saturating concentrations of integrin-blocking mAbs (predetermined by flow cytometry) were preincubated with T cells for 30 min at 37° C. before adding T cells to the wells for the adhesion assay. Nonadherent cells were removed by a standardized washing technique that was developed to minimize background binding, which includes both an orbital and a rocking motion repeated three times with RPMI. Adhesion was quantified with a multiwell fluorescent spectrophotometer (Tecan, Groedig, Austria). For each experimental group the results were expressed as the mean percentage±SD of bound T cells from triplicate wells."}, "[6]": {"details": "100 mg/kg once daily i.p. for 5 days"}},
  "data": [
    {"molecule": "B1", "values": [
      {"measurement": "time to induction of apoptosis", "setting": "PBT [1]", "value": "6 to 12", "unit": "h"},
      {"measurement": "time course of annexin-V staining", "setting": "PBT [1]; 50 μg/ml, anti-CD3", "value": "gradual increase over 72 h"},
      {"measurement": "nuclear fragmentation (DAPI staining)", "setting": "PBT [1]; 25 and 50 μg, data not shown", "value": "induce nuclear fragmentation"},
      {"measurement": "T cell apoptosis (annexin-V)", "setting": "PBT [1]; PBT activated by anti-CD3 mAbs", "value": "induced a dose-dependent apoptosis"},
      {"measurement": "T cell necrosis (PI)", "setting": "PBT [1]; PBT activated by anti-CD3 mAbs", "value": "albeit to a much lesser extent, necrosis"},
      {"measurement": "apoptosis of T cells from patients with RA or CD", "setting": "PBT [1]; anti-CD3, 48 hours, 0, 10, 25, 50 μg/ml", "value": "induces apoptosis"},
      {"measurement": "percentage of T cell apoptosis relative to galectin-1", "setting": "PBT [1]; anti-CD3 activated PBT", "value": "higher than that induced by galectin-1"},
      {"measurement": "apoptosis in CD4 and CD8 positive T cell populations", "setting": "PBT [1]; data not shown", "value": "comparable in CD4 and CD8 positive T cell populations"},
      {"measurement": "T cell apoptosis (annexin-V)", "setting": "PBT [1]; without cell stimulation, 0, 10, 25, 50, 100 μg/ml", "value": "failed to induce T cells apoptosis"},
      {"measurement": "mortality", "setting": "[2]; [6]", "value": "None of these animals died"},
      {"measurement": "pathological assessment of heart, kidney, lung, liver", "setting": "[2]; [6]", "value": "did not reveal any microscopic or macroscopic damage"},
      {"measurement": "weight gain", "setting": "[2]; [6]", "value": "about 7±1.7%"},
      {"measurement": "highest dose evaluated relative to optimal dose", "setting": "[2]; 100 mg/kg versus 2×1 mg/kg", "value": "about 50 fold"},
      {"measurement": "dose limiting toxicities", "setting": "[2]; broad dose range up to 100 mg/kg", "value": "no dose limiting toxicities were observed"},
      {"measurement": "bax protein expression", "setting": "PBT [3]; 0, 25, 50 μg/ml, 48 h", "value": "increases"},
      {"measurement": "bcl-2 protein expression", "setting": "PBT [3]; 0, 25, 50 μg/ml, 48 h", "value": "significantly reduces"},
      {"measurement": "cytochrome c release", "setting": "PBT [3]; data not shown", "value": "dose-dependently increased cytochrome c release in activated, but not resting T cells"},
      {"measurement": "DNA-fragmentation factor (DFF)", "setting": "PBT [3]; immunoblotting", "value": "dose-dependently upregulated"},
      {"measurement": "β4 integrin accessibility", "setting": "T cells (PBT, LPT) [4]; CD3 activated PBT", "value": "neither galectin-1 nor galectin-2 changed"},
      {"measurement": "integrin α5 accessibility", "setting": "T cells (PBT, LPT) [4]; CD3 activated PBT, 50 μg/ml", "value": "downregulated"},
      {"measurement": "integrin β1 accessibility", "setting": "T cells (PBT, LPT) [4]; CD3 activated PBT, 50 μg/ml", "value": "downregulated"},
      {"measurement": "integrin a5 accessibility", "setting": "T cells (PBT, LPT) [4]; CD3 activated PBT, second statement", "value": "slightly upregulated"},
      {"measurement": "integrin β1 accessibility", "setting": "T cells (PBT, LPT) [4]; intestinal T cells (LPT)", "value": "failed to modulate"},
      {"measurement": "cells adhering to collagen type I", "setting": "T cells (PBT, LPT) [5]; CD3 activated PBT, without galectin 22.1±3.5%", "value": "15.1±5.6", "unit": "%"},
      {"measurement": "cells adhering to fibronectin", "setting": "T cells (PBT, LPT) [5]; CD3 activated PBT, without galectin 26.3±5.6%", "value": "39.8±4.9", "unit": "%"},
      {"measurement": "attachment to fibronectin", "setting": "T cells (PBT, LPT) [5]; LPT", "value": "increasing"},
      {"measurement": "cell adhesion to collagen", "setting": "T cells (PBT, LPT) [5]; LPT", "value": "inhibited"}
    ]}
  ]
}
